This is an account of results in patent EP4536686B1 (GENETHON, dated 2025).

For the assay, the target named is T1, integrin heterodimer αVβ6 (ITGAV-B6) (human, UniProt P06756 31-1048; P18564 22-788).
T1 construct: whole, on cells; Species is read from the 'h' prefix of hITGAV and hITGB6; also called ITGAV-B6 heterodimers; hITGAV and hITGB6
Briefly: concluding sentence, resting on the infection and luciferase assay in 293_ITGAV-B6 cells; no direct binding assay.

Where a chain is given by its changes, count along the chain named.

T1 sequence (P06756 31-1048, chain 1 of 2): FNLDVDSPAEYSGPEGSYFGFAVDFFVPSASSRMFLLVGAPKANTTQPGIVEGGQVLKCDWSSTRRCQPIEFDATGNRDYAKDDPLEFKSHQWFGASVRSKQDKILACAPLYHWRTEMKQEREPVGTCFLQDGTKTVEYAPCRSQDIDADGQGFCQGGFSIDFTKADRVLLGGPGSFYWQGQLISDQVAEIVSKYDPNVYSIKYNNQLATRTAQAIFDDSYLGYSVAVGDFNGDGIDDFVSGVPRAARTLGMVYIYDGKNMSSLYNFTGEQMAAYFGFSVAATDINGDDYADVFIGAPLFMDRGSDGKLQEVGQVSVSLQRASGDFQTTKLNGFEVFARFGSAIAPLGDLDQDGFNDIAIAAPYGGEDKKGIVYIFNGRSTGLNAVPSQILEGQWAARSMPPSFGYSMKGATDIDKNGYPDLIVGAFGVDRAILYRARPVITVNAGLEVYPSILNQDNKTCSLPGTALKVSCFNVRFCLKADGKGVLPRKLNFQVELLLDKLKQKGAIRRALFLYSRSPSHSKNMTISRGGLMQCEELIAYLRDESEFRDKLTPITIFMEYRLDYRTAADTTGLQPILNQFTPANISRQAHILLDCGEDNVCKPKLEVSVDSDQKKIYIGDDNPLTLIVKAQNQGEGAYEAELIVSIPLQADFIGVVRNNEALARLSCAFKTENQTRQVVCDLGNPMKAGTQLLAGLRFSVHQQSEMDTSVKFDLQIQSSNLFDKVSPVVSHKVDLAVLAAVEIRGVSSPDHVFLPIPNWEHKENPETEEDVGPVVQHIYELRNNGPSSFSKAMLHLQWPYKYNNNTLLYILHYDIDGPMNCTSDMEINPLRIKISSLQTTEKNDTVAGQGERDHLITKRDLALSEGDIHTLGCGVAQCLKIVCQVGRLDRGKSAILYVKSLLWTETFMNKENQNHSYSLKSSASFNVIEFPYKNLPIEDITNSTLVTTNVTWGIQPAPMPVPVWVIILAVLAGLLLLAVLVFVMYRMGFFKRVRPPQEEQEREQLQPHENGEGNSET
T1 sequence (P18564 22-788, chain 2 of 2): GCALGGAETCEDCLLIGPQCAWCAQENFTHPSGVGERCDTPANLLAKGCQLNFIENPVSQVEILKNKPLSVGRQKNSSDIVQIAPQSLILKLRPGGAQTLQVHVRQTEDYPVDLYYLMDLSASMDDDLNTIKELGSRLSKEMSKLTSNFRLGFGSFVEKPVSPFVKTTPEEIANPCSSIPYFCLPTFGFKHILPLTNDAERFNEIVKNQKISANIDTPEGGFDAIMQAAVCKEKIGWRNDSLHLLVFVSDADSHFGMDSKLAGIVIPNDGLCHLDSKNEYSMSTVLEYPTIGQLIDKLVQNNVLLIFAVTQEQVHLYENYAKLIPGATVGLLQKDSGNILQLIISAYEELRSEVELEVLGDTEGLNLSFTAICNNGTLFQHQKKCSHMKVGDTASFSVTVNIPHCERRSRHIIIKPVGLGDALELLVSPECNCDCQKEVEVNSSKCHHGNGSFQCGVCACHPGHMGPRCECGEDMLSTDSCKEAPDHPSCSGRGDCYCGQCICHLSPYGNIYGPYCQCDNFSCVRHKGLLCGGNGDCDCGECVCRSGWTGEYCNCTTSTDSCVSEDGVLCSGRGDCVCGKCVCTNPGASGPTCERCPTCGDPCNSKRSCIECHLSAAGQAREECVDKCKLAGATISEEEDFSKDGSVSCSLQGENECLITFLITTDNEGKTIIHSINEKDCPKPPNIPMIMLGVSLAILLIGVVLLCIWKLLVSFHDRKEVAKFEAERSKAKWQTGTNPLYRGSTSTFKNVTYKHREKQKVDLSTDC

B1: AAV_Cap9rh74_VR4-4um9.Nat (other)
chain: MAADGYLPDWLEDNLSEGIREWWALKPGAPQPKANQQHQDNARGLVLPGYKYLGPGNGLDKGEPVNAADAAALEHDKAYDQQLKAGDNPYLKYNHADAEFQERLKEDTSFGGNLGRAVFQAKKRLLEPLGLVEEAAKTAPGKKRPVEQSPQEPDSSAGIGKSGAQPAKKRLNFGQTGDTESVPDPQPIGEPPAAPSGVGSLTMASGGGAPVADNNEGADGVGSSSGNWHCDSQWLGDRVITTSTRTWALPTYNNHLYKQISNSTSGGSSNDNAYFGYSTPWGYFDFNRFHCHFSPRDWQRLINNNWGFRPKRLNFKLFNIQVKEVTDNNGVKTIANNLTSTVQVFTDSDYQLPYVLGSAHEGCLPPFPADVFMIPQYGYLTLNDGSQAVGRSSFYCLEYFPSQMLRTGNNFQFSYEFENVPFHSSYAHSQSLDRLMNPLIDQYLYYLSRTQSTDGRGDLGRLGPQQLLFSQAGPNNMSAQAKNWLPGPCYRQQRVSTTLSQNNNSNFAWTGATKYHLNGRDSLVNPGVAMATHKDDEERFFPSSGVLMFGKQGAGKDNVDYSSVMLTSEEEIKTTNPVATEQYGVVADNLQQQNAAPIVGAVNSQGALPGMVWQNRDVYLQGPIWAKIPHTDGNFHPSPLMGGFGMKHPPPQILIKNTPVPADPPTAFNKDKLNSFITQYSTGQVSVEIEWELQKENSKRWNPEIQYTSNYYKSNNVEFAVNTEGVYSEPRPIGTRYLTRNL
notes: Tested as a whole recombinant AAV vector particle packaging CMV-GFP/Luc; also called Cap9rh74_VR4-4um9(LICA.01)
On to B1, for which the binding result is “binds”.

B2: AAV_Cap9rh74_VR4-5ffo.Nat (other)
chain: B1 chain with T453E, D454P, G455R, G460A, R461T, L462I, P464S
notes: Tested as a whole recombinant AAV vector particle packaging CMV-GFP/Luc
Turning to B2, the binding result is given as “binds”.
